# Experiments:
# Assay in all cases: Kinase Profiling Assay
# Format in all cases: biochemical
# Settings in all cases: 100 μM peptide
# CK1γ3(h) = CK1γ3(h) (Homo sapiens, UniProt Q9Y6M4)
# In short: (§1)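 Duplicate activity readings per kinase; peptide inhibitors of MK2 profiled against 266 human kinases for selectivity.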
# EGFR(T790M)(h) = EGFR(T790M)(h) (Homo sapiens, UniProt P00533, T790M)
# In short: as §1
# Aurora-A(h) = biological target: T1, Aurora-A(h) (Homo sapiens, UniProt O14965)
# T1 sequence (O14965 1-403): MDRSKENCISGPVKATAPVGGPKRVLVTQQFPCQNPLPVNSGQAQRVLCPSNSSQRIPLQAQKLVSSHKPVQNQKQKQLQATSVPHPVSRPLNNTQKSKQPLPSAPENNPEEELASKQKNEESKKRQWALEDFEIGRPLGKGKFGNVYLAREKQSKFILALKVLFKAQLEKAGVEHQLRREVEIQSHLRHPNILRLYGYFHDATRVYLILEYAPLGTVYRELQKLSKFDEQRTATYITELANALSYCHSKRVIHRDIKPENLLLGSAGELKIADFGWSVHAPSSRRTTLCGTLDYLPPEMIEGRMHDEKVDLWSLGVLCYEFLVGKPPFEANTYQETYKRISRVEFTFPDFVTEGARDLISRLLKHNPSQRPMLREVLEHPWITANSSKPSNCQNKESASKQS
# In short: as §1
# HIPK3(h) = biological target: T2, HIPK3(h) (Homo sapiens, UniProt Q9H422)
# T2 construct: purchased Millipore
# T2 sequence (Q9H422 whole entry): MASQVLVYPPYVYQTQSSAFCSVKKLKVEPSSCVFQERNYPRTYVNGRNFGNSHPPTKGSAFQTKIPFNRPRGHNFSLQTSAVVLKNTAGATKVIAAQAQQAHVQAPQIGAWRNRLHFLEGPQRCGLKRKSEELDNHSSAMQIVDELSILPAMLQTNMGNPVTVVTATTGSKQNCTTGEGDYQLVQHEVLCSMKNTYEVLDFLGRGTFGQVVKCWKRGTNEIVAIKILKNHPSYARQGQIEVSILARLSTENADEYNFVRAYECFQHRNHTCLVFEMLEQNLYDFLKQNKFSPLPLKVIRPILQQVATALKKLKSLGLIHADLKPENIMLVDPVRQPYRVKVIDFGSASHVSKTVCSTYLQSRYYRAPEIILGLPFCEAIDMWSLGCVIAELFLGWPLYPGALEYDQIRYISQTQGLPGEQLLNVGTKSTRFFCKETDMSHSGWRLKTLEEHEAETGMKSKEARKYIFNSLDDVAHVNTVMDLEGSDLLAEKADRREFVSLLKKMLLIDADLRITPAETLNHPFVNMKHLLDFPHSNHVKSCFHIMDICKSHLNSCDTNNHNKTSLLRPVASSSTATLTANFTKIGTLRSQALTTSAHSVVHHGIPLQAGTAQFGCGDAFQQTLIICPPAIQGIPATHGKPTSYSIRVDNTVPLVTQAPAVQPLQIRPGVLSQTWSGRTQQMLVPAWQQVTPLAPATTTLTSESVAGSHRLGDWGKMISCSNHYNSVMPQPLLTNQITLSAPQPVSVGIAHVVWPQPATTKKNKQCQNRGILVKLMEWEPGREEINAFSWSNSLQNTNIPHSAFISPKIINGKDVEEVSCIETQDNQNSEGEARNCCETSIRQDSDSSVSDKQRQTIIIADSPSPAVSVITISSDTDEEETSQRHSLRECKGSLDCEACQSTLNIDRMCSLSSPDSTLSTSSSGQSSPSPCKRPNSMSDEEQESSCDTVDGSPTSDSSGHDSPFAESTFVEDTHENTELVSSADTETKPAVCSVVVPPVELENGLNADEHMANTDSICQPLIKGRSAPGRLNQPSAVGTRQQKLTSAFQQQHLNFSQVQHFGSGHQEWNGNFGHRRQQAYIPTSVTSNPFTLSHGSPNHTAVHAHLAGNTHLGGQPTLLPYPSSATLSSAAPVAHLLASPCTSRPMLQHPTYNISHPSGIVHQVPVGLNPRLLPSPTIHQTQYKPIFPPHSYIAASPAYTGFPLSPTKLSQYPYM
# In short: as §1
# Lck(h) = Lck(h) (Homo sapiens, UniProt P06239)
# In short: as §1
# MKK7β(h) = biological target: T3, MKK7β(h) (Homo sapiens, UniProt O14733)
# T3 sequence (O14733 1-419): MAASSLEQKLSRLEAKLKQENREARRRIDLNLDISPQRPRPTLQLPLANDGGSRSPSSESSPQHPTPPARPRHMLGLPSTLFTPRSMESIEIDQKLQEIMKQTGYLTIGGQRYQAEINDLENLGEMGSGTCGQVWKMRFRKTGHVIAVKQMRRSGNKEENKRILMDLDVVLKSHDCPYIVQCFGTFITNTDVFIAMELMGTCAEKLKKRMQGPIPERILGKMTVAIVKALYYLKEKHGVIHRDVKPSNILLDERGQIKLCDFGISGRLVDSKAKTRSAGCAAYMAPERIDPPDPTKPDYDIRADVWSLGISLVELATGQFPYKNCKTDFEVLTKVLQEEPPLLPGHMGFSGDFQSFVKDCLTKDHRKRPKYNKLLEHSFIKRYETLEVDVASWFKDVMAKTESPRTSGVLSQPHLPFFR
# In short: as §1
# Abl(H396P)(h) = Abl(H396P)(h) (Homo sapiens, UniProt P00519, H396P)
# In short: as §1
# cKit(V560G)(h) = cKit(V560G)(h) (Homo sapiens, UniProt P10721, V560G)
# In short: as §1
# MRCKα(h) = MRCKα(h) (Homo sapiens, UniProt Q5VT25)
# Sequence of MRCKα(h) (Q5VT25 whole entry): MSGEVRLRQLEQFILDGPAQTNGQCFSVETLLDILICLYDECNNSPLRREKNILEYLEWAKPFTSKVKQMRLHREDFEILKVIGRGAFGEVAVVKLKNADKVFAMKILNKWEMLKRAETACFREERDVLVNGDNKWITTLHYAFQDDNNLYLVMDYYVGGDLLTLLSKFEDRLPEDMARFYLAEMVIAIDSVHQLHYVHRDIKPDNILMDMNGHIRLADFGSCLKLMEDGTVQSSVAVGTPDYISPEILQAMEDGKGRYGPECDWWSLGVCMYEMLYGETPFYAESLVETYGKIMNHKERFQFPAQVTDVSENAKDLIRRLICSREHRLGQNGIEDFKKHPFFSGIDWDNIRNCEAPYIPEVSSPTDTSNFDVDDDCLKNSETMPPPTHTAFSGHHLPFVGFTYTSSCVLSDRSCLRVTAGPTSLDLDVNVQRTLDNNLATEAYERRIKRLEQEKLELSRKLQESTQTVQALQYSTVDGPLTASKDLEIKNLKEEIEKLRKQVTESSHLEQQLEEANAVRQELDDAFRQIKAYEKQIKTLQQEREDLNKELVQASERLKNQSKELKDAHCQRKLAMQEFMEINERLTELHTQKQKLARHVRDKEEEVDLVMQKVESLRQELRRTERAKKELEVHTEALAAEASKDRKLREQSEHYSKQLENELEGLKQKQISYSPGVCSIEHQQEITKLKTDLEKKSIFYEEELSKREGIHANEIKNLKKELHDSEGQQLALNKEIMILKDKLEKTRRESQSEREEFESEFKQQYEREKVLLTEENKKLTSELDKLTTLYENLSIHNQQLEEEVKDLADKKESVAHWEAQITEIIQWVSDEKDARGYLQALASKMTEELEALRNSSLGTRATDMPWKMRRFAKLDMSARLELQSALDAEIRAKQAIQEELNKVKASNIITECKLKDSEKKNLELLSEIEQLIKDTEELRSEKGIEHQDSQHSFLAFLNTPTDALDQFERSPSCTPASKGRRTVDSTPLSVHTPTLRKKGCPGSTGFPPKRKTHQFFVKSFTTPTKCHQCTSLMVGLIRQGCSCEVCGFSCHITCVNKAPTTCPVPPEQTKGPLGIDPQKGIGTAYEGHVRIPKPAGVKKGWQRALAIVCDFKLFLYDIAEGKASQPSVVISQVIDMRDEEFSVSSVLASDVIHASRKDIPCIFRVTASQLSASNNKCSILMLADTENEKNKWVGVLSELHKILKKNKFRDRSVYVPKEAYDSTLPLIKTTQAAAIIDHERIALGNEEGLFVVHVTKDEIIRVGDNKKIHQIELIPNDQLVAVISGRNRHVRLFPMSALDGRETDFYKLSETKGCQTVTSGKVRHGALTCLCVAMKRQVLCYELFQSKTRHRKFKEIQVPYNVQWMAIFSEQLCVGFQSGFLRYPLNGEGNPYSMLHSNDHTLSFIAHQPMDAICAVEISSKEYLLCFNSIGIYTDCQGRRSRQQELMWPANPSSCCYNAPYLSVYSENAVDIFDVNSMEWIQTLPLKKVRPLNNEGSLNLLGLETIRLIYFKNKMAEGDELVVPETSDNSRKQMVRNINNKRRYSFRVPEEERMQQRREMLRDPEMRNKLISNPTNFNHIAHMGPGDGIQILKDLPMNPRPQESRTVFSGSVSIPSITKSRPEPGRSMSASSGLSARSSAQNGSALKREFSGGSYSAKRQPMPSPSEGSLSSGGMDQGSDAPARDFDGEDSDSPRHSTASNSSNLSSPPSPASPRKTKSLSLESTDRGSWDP
# In short: as §1
# JAK3(h) = biological target: T4, JAK3(h) (Homo sapiens, UniProt P52333)
# T4 construct: purchased Millipore
# T4 sequence (P52333 1-1124): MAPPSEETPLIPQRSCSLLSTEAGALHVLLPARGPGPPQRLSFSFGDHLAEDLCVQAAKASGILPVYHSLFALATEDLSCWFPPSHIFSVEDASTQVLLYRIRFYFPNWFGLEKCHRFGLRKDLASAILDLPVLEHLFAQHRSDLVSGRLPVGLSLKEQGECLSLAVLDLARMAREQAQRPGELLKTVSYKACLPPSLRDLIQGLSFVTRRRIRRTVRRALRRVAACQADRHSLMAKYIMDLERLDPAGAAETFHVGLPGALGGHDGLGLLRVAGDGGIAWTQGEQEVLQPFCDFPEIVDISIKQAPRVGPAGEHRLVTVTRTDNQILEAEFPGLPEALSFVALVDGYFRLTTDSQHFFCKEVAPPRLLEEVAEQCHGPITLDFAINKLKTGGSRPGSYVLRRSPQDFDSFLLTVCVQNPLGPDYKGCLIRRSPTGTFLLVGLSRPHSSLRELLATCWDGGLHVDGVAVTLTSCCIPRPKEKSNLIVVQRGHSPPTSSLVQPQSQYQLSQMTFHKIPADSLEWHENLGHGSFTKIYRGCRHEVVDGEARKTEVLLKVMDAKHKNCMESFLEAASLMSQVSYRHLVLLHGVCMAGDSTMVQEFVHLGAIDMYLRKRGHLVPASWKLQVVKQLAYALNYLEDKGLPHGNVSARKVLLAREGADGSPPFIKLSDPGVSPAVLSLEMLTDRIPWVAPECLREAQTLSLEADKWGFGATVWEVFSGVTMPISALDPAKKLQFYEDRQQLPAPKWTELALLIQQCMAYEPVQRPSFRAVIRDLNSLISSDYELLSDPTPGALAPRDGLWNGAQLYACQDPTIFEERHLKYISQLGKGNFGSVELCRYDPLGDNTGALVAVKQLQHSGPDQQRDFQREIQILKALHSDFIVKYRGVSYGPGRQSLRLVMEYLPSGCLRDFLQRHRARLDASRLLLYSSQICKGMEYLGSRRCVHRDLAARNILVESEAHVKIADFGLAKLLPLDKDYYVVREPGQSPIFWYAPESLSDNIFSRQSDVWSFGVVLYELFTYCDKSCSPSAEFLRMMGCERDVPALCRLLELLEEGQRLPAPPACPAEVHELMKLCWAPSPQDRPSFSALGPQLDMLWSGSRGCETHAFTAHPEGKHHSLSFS
# In short: as §1
# MAPK1(h) = MAPK1(h) (Homo sapiens, UniProt P27361)
# Sequence of MAPK1(h) (P27361 whole entry): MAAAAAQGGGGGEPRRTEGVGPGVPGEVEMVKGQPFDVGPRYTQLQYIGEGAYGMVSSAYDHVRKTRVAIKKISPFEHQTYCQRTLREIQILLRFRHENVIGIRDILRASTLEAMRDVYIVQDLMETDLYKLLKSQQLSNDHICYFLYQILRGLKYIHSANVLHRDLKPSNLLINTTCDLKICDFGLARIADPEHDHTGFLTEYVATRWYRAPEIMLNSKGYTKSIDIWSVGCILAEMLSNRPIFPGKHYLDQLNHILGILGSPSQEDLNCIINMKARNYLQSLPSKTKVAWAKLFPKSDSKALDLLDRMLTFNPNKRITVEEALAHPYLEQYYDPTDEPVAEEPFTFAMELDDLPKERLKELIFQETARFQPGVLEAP
# In short: as §1
# GRK5(h) = biological target: T5, GRK5(h) (Homo sapiens, UniProt P34947)
# T5 construct: purchased Millipore
# T5 sequence (P34947 whole entry): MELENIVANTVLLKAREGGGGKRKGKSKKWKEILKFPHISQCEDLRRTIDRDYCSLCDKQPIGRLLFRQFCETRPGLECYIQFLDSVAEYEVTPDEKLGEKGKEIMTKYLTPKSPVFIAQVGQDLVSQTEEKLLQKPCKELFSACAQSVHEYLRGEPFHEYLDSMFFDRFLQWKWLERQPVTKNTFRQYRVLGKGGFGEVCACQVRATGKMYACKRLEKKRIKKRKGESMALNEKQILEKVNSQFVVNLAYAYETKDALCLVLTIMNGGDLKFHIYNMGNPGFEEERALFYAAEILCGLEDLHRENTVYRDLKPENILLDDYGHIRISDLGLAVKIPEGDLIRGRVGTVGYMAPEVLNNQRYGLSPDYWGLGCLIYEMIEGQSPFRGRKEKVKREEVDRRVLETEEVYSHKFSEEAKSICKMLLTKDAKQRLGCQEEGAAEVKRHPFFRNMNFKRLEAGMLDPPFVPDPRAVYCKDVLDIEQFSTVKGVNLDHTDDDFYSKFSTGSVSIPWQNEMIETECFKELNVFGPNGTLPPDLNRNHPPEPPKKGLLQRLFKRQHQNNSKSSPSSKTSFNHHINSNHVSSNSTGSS
# In short: as §1
# Tie2(R849W)(h) = Tie2(R849W)(h) (Homo sapiens, UniProt Q02763, R849W)
# Sequence of Tie2(R849W)(h) (Q02763 23-1124 R849W): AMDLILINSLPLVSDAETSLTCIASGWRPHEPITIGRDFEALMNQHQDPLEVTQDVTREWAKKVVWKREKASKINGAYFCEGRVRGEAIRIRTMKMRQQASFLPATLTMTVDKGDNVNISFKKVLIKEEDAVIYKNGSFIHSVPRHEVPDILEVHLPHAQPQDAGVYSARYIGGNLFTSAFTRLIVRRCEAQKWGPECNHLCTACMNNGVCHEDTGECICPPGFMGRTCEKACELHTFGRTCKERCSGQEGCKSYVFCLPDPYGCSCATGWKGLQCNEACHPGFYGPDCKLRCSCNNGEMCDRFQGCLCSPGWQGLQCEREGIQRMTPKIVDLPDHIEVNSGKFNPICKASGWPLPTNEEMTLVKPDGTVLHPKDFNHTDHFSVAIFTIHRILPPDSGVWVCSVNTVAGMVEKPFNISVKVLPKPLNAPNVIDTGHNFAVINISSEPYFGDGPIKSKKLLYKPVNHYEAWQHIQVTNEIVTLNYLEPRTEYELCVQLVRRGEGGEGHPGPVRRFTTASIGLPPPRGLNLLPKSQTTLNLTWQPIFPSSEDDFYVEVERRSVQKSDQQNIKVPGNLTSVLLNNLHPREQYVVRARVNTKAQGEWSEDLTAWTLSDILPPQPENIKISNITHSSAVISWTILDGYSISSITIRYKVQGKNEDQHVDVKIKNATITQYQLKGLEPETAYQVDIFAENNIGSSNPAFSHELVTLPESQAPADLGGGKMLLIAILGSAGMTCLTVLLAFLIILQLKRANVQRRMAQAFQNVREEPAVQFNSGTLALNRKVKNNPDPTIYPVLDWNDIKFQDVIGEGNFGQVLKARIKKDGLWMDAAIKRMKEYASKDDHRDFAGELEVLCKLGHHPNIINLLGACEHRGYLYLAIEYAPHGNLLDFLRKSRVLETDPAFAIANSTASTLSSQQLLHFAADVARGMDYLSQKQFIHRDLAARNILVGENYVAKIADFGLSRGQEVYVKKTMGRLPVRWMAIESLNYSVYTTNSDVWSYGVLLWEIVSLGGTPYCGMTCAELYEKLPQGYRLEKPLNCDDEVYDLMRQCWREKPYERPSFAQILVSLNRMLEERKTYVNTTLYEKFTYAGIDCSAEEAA
# In short: as §1
# IGF-1R(h) = biological target: T6, IGF-1R(h) (Homo sapiens, UniProt P08069)
# T6 construct: purchased Millipore
# In short: as §1
Sequence,CK1γ3(h) % activity (CK1γ3(h)) [%],EGFR(T790M)(h) % activity (EGFR(T790M)(h)) [%],Aurora-A(h) % activity (Aurora-A(h)) [%],HIPK3(h) % activity (HIPK3(h)) [%],Lck(h) % activity (Lck(h)) [%],MKK7β(h) % activity (MKK7β(h)) [%],Abl(H396P)(h) % activity (Abl(H396P)(h)) [%],cKit(V560G)(h) % activity (cKit(V560G)(h)) [%],MRCKα(h) % activity (MRCKα(h)) [%],JAK3(h) % activity (JAK3(h)) [%],MAPK1(h) % activity (MAPK1(h)) [%],GRK5(h) % activity (GRK5(h)) [%],Tie2(R849W)(h) % activity (Tie2(R849W)(h)) [%],IGF-1R(h) % activity (IGF-1R(h)) [%]
FAKLAARLYRKALARQLGVAA [MMI-0300],125,100,92,93,−2,100,101,–,–,–,–,–,–,–
HRRIKAWLKKIKALARQLGVAA (Mammalian) [MMI-0500],–,70,110,85,359,–,51,198,5,95,–,–,–,–
KAFAKLAARLYRKALARQLGVAA [MMI-0400],–,–,–,–,–,94,–,124,97,122,100,131,108,90
YARAAARQARAKALNRQLGVA (Mammalian) [MMI-0200],96,–,–,–,–,–,–,–,–,–,97,135,89,49
